Laboratory results reported in the supplement of paper PMC6379048.

Assays:
Assay in all cases: EC50 of free RNA motif oligo competing protein binding to immobilised probe
[1] = biological target: MSI2 (UniProt Q96DH6)
In short: (§1)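 Kd was calculated as EC50, taken from a four-parameter log-logistic fit, multiplied by a protein-dependent depletion factor. The assay used HEK293-FT lysate (2.5 mg protein/well) pre-incubated for 1 h at 4°C with free RNA oligos (0 nM to 30 μM), then incubated for 30 min at 4°C with the matching oligos bound through a 5′-amino-C6 linker to NHS-Sepharose beads. Bound proteins were measured by label-free LC-MS/MS and normalised to the control.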

[2] = biological target: ZCCHC24 (UniProt Q8N2G6)
In short: as §1

[3] = biological target: T1, HNRNPDL (UniProt O14979)
T1 sequence: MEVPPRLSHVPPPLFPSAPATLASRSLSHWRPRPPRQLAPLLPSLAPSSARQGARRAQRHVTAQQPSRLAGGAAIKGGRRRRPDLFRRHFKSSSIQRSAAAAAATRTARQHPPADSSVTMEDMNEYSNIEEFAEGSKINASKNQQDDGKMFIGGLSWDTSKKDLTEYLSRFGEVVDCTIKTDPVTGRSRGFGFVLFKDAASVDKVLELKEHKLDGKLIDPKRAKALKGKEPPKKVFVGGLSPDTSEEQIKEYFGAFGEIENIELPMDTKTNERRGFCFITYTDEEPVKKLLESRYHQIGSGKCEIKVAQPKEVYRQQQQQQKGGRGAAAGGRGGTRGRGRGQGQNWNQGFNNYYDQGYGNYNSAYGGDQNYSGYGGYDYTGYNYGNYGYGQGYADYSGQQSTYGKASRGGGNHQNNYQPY
In short: as §1

[4] = biological target: T2, RBM4 (UniProt Q9BWF3)
T2 sequence: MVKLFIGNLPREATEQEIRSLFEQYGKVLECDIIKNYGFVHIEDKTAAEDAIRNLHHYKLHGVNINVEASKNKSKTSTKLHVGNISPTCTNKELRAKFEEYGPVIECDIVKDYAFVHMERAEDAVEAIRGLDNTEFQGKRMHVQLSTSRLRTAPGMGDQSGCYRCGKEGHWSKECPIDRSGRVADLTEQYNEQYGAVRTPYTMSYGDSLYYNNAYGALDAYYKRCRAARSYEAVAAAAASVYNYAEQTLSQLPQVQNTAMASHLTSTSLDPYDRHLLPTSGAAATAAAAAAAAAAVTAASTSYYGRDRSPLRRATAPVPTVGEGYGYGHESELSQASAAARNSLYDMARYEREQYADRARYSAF
In short: as §1

[5] = biological target: MSI1 (UniProt O43347)
In short: as §1

[6] = biological target: T3, AQR (UniProt O60306)
T3 sequence: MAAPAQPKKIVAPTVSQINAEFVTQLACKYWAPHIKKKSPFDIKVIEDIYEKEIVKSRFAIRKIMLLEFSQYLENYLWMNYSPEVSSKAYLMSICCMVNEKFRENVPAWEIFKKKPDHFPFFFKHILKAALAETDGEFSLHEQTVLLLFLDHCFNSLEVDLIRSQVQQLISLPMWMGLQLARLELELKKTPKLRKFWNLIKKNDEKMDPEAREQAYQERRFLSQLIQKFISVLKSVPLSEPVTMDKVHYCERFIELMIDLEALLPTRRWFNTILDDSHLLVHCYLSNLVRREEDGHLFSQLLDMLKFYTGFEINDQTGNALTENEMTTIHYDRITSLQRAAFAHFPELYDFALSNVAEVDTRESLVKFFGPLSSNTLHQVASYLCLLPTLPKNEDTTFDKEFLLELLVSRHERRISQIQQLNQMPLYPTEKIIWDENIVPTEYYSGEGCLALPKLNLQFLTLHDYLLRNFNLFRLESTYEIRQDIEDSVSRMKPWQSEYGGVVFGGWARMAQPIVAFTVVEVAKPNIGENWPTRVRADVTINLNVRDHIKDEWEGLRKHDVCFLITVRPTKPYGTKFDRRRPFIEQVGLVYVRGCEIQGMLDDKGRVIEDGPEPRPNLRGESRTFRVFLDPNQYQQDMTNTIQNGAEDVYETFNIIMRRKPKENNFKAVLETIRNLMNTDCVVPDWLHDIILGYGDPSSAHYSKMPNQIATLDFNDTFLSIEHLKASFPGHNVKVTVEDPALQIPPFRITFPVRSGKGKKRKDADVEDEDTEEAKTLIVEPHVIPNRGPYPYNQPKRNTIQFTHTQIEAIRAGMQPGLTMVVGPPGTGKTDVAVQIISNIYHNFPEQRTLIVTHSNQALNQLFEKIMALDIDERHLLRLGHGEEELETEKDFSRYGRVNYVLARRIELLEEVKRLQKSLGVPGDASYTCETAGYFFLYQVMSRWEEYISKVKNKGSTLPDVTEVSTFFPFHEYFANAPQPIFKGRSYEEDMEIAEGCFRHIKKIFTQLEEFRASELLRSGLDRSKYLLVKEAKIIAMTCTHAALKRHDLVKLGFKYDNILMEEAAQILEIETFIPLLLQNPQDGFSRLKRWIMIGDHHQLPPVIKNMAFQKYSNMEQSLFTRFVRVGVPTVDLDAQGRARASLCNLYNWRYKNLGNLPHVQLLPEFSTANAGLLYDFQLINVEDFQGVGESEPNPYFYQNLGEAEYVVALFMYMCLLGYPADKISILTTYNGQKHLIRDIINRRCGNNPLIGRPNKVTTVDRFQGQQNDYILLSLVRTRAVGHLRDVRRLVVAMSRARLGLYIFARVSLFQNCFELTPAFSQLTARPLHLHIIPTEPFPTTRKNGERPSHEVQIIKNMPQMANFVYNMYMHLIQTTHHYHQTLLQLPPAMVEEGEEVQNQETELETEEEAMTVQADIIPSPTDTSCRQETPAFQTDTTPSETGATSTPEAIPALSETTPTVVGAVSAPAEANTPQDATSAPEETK
In short: as §1

ZCCHC24, sequence (Q8N2G6 whole entry): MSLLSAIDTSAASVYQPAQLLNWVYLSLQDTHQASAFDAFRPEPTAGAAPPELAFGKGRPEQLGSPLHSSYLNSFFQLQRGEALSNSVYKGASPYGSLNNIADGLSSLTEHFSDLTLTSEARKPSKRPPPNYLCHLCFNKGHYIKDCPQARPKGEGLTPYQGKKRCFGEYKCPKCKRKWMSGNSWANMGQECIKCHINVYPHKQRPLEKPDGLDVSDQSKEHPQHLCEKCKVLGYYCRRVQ
MSI1, sequence (O43347 whole entry): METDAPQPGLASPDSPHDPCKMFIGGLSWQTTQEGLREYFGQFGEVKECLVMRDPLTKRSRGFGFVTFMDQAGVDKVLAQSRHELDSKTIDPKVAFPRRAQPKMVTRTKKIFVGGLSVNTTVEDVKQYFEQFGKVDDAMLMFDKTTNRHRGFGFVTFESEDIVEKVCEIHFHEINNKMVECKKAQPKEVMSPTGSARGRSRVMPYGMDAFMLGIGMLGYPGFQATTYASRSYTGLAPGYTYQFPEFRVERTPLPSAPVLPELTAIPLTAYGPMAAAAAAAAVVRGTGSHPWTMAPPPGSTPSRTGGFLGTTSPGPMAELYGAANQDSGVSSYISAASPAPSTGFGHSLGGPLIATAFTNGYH
MSI2, sequence (Q96DH6 whole entry): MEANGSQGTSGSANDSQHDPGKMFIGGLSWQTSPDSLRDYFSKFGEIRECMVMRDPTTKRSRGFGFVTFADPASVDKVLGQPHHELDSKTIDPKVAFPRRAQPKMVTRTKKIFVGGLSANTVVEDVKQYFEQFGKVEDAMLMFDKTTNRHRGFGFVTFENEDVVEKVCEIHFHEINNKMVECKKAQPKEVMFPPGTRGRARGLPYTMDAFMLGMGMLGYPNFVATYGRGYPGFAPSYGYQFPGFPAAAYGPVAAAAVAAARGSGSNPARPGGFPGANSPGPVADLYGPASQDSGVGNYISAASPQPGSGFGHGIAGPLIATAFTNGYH

Row | Sequence | EC50 [1] | EC50 [2] | EC50 [3] | EC50 [4] | EC50 [5] | EC50 [6]
1 | AAUAAA | 826 nM | 545 nM | 2090 nM | 4160 nM | 3500 nM | 877 nM
2 | CUGUCCU |  |  |  | 371 nM |  | 
3 | UAUUUAU | 803 nM | 2520 nM | 3480 nM |  | 487 nM | 706 nM
